From publication PMC6052341, “Phosphorylation of FtsZ and FtsA by a DNA Damage-Responsive Ser/Thr Protein Kinase Affects Their Functional Interactions in Deinococcus radiodurans” (mSphere, 2018)

T1: P-FtsA, phosphorylated form of FtsA of Deinococcus radiodurans, purified recombinant (Deinococcus radiodurans, UniProt Q9RWN6 1-517, phosphorylated by co-expressed RqkA (checked with anti-phospho-Ser/Thr antibodies); sites reported for FtsA: threonine 272, serine 370 and serine 386)
T1 construct: FtsA, cell division protein of Deinococcus radiodurans R1; same plasmid as m3, co-expressed with the kinase RqkA; also called phosphorylated FtsA
T1 sequence (looked up): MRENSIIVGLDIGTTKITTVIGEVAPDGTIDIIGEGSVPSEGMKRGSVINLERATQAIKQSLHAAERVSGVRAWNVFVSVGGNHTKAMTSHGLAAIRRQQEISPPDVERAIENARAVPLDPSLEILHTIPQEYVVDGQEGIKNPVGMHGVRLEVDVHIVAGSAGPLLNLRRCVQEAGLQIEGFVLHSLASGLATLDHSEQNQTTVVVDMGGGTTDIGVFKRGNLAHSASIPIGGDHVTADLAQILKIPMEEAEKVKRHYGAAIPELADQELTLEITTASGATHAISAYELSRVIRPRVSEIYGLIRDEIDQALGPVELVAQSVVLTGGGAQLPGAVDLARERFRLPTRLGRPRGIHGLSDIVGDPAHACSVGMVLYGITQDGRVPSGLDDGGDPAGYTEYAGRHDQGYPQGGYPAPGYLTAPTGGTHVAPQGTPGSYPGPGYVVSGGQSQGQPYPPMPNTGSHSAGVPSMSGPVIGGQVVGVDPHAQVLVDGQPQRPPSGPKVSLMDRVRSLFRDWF

B1: FtsZ of Deinococcus radiodurans, purified recombinant (natural protein, UniProt Q9RWN5 1-371, looked up)
chain: MQAARIRVIGLGGAGNNAVNRMIESGLEGVEFIAGNTDAQVLAKSHAEVRIQLGDRLTRGLGAGADPKVGEEAAVEDRDRIKEYLDDTDMLFITAGMGGGTGTGSAPVVAEIAREMGILTVAIVTRPFKFEGPKRMRVAEEGMSKLADRVDGMIVVNNEKLLTAVDKKVSFREAFLIADRVLYYGVKGISDVINVEGMINLDFADVRNLLANSGTVLMGIGAGRGDKMAEEAAMSAIHSPLLERGIEGARRILVNVTGGYDLSMTDANEIVEKIREATGFDDPDILFGITPDEAAGDEVRVTVIATGFGDNTYAAPLGGVVSSGRGGYDQGGYGSGLVRPVRGGQGGLGGGSSYDPKDYDIPAFLRNVGGQ
notes: FtsZ, cell division protein of Deinococcus radiodurans R1; also called FZ; unphosphorylated FtsZ; source: E. coli BL21(DE3) pLysS from pFTSZ, purified (nickel-chelating Sepharose, Ni-NTA agarose)
B2: P-FtsZ, phosphorylated form of FtsZ of Deinococcus radiodurans, purified recombinant (natural protein, UniProt Q9RWN5 1-371, looked up)
chain: B1 chain
modifications: phosphorylated by co-expressed RqkA (checked with anti-phospho-Ser/Thr antibodies); sites mapped on FtsZ phosphorylated by RqkA in vitro: serine 235 and serine 335
notes: FtsZ, cell division protein of Deinococcus radiodurans R1; same plasmid as m1, co-expressed with the kinase RqkA; also called PFZ; phosphorylated FtsZ
B3: FtsA of Deinococcus radiodurans, purified recombinant (natural protein, UniProt Q9RWN6 1-517, looked up)
chain: T1 sequence (looked up)

Key:
[1] = biological target: T1, P-FtsA, phosphorylated form of FtsA of …; assay: SPR; FtsA or P-FtsA (25 µM) immobilised on a bare gold sensor chip by EDC-NHS chemistry at 20°C, about 200 response units; running buffer 20 mM Tris pH 7.6; FtsZ or P-FtsZ (6 to 30 µM) with 1 mM GTP and 1 mM MgCl2 in the mobile phase; AutoLab Esprit; conditions: both partners purified
[2] = biological target: B3; assay: as above; conditions: both partners purified
[3] = biological target: T1, P-FtsA, phosphorylated form of FtsA of …; assay: SPR; reverse manner: FtsZ or P-FtsZ (20 µM) immobilised on a bare gold sensor chip; FtsA or P-FtsA (4 to 20 µM) in the mobile phase; conditions: both partners purified
[4] = biological target: B3; assay: as above; conditions: both partners purified
[5] = biological target: B1; assay: cell-based or functional assay

Row | Kd [1] | Kd [2] | Kd [3] | Kd [4] | stimulation of the GTPase activity of 5 µM FtsZ by 5 µM FtsA (malachite green assay; TLC of [32P]GTP to [32P]GDP) [5] | Binder
1 | 8.35 µM | 6.83 µM | 5.17 µM | 7.93 µM |  | B1
2 | 15 µM | 10.3 µM | 58.3 µM | 65.2 µM |  | B2
3 |  |  |  |  | ~1.5 fold | B3
